Data set [1] deals with T1, SLFN5 1-336 (Schlafen core domain) (Homo sapiens, UniProt Q08AF3 1-336).
T1 sequence: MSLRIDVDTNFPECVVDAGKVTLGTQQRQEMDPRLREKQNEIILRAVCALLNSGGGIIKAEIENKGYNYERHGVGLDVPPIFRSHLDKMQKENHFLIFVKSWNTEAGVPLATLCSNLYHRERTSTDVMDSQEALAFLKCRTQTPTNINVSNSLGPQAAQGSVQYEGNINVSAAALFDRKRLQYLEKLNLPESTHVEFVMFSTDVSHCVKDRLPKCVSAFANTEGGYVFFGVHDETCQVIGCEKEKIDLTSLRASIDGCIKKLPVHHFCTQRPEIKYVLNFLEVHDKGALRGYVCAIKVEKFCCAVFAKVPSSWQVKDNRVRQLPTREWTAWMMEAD
Nature of the data set: fluorescence anisotropy; FA: 2x buffer 100 mM HEPES pH 8.0, 100 mM NaCl mixed 1:1 with 100 nM (final) FAM ligand, 30 min on ice; EMSA: 25 mM HEPES pH 7.0, 60 mM NaCl, 5% glycerol, 2 mM. The settings on record: protein: recombinant, tags: C-terminal His6.

Data set [2] has as its target T2, SLFN5 full length (Homo sapiens, UniProt Q08AF3 1-891).
T2 sequence: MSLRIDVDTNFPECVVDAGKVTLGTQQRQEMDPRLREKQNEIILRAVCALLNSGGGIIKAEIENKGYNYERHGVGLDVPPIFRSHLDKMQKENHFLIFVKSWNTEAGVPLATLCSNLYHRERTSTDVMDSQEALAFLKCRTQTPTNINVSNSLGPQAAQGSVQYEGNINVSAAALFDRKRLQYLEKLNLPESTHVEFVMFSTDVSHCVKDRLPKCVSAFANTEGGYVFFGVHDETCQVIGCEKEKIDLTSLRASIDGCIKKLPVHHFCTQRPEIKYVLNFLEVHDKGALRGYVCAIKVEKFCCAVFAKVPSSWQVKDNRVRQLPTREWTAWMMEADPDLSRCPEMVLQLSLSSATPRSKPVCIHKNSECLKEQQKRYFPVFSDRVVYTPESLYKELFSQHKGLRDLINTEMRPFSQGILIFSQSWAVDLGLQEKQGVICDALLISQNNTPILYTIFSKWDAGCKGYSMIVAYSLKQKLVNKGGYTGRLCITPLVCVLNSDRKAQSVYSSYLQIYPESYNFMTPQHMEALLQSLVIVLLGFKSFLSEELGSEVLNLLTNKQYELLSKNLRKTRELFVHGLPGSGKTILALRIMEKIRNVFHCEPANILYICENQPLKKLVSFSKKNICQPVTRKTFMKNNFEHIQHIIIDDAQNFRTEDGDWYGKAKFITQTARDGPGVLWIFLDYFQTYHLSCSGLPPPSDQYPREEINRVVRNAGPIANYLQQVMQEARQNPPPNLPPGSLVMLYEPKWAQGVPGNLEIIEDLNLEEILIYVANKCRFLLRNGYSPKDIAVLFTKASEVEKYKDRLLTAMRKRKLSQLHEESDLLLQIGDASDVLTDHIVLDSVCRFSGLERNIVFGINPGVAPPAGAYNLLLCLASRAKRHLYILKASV
Nature of the data set: competition EMSA; with tRNASer, 20 nM each; comparable affinities; FA: 2x buffer 100 mM HEPES pH 8.0, 100 mM NaCl mixed 1:1 with 100 nM (final) FAM ligand, 30 min on ice; EMSA: 25 mM HEPES pH 7.0, 60 mM NaCl, 5% glycerol, 2 mM. Particulars: protein: recombinant; tags: N-terminal double FLAG, HRV 3C site; label: 5'-Cy5 (fwd); blunt. A general note: Mobility shift assays separate free from complexed probe on a gel.

Data set [3] has as its target T2, SLFN5 full length. Nature of the data set: competition EMSA; with tRNASer, 20 nM each; 196 bp DNA preferred; FA: 2x buffer 100 mM HEPES pH 8.0, 100 mM NaCl mixed 1:1 with 100 nM (final) FAM ligand, 30 min on ice; EMSA: 25 mM HEPES pH 7.0, 60 mM NaCl, 5% glycerol, 2 mM. The settings on record: protein: recombinant; tags: N-terminal double FLAG, HRV 3C site; label: 5'-Cy5 (rev primer); blunt.

A word on the Kd: it is the equilibrium constant for the complex coming apart.

On to UUUUUUUUUUUUUUUUUUUUUUUUUUUUUU (ssRNA) [30 rU], for which, in data set [1] (label: 5'-FAM), the Kd amounted to 5.1 µM.

B1: 50 bp DNA (dsDNA)
DNA 1: AATTGGTCGTAGCAAGCTCTAGCACCGCTTAAACGCACGTACGCGCTGTC
DNA 2: GACAGCGCGTACGTGCGTTTAAGCGGTGCTAGAGCTTGCTACGACCAATT
For the molecule B1, the binding result with SLFN5 full length [2] is given as “binds”. As for TTTTTTTTTTTTTTTTTTTTTTTTTTTTTT (ssDNA) [30 dT], the Kd in data set [1] (label: 5'-FAM) was determined as 11 µM.

B2: tRNA(Ser) (structured_RNA)
RNA: GUAGUCGUGGCCGAGUGGUUAAGGCGAUGGACUUGAAAUCCAUUGUGGUUUCCCCGCGCAGGUUCGAAUCCUGCCGACUACGCCA
With B2, the Kd in data set [1] (label: 5'-FAM, tRNA fold) was found to be 4.3 µM.

B3: 196 bp DNA (0N49) (dsDNA)
DNA 1: CTGGAGAATCCCGGTGCCGAGGCCGCTCAATTGGTCGTAGCAAGCTCTAGCACCGCTTAAACGCACGTACGCGCTGTCCCCCGCGTTTTAACCGCCAAGGGGATTACTCCCTAGTCTCCAGGCACGTGTCAGATATATACATCCTGTGCATGTATTGAACAGCGACCTTGCCGGTGCCAGTCGGATAGTGTTCCGA
DNA 2: TCGGAACACTATCCGACTGGCACCGGCAAGGTCGCTGTTCAATACATGCACAGGATGTATATATCTGACACGTGCCTGGAGACTAGGGAGTAATCCCCTTGGCGGTTAAAACGCGGGGGACAGCGCGTACGTGCGTTTAAGCGGTGCTAGAGCTTGCTACGACCAATTGAGCGGCCTCGGCACCGGGATTCTCCAG
For the molecule B3, the binding result with SLFN5 full length [3] is recorded as “binds”.

B4: 60 dT (ssDNA)
DNA: TTTTTTTTTTTTTTTTTTTTTTTTTTTTTTTTTTTTTTTTTTTTTTTTTTTTTTTTTTTT
As for B4, the Kd in data set [1] (label: 5'-FAM) came out at 7.8 µM.

B5: 60 bp DNA (60bp_A/T_GC) (dsDNA)
DNA 1: TTTTTTTTTTTTTTTTTTTTTTTTTTTTTTTTTTTTTTTTTTTTTTTTTGCTTTTTTTTT
DNA 2: AAAAAAAAAGCAAAAAAAAAAAAAAAAAAAAAAAAAAAAAAAAAAAAAAAAAAAAAAAAA
In the case of B5, the Kd in data set [1] (label: 5'-FAM (fwd), blunt) was determined as 2.5 µM.

B6: 60 rU (ssRNA)
RNA: UUUUUUUUUGCUUUUUUUUUUUUUUUUUUUUUUUUUUUUUUUUUUUUUUUUUUUUUUUUU
On to B6, for which, in data set [1] (label: 5'-FAM), the Kd came out at 3.6 µM.

The values above are taken from PMC8789055, “Structural and biochemical characterization of human Schlafen 5”.
